Test results reported in PMC4945072, “GNG Motifs Can Replace a GGG Stretch during G-Quadruplex Formation in a Context Dependent Manner”.

Target: Nucleolin 284-710 (UniProt P19338 284-710)
Assay: EMSA; 100 mM KCl; EMSA: oligo folded in binding buffer (composition not given) + 100 mM KCl, 37 C 1 h; nucleolin 100 ng, 4 C 2 h, 8% native gel + 100 mM KCl at 4 C; BG4 37 C 30 min, 6% native gel + 100 mM KCl at RT; CD: 1x PBS + 100 mM KCl
Conditions: protein: recombinant, tags: His, label: 5'-32P (EMSA)

Chain of Nucleolin 284-710 (P19338 284-710): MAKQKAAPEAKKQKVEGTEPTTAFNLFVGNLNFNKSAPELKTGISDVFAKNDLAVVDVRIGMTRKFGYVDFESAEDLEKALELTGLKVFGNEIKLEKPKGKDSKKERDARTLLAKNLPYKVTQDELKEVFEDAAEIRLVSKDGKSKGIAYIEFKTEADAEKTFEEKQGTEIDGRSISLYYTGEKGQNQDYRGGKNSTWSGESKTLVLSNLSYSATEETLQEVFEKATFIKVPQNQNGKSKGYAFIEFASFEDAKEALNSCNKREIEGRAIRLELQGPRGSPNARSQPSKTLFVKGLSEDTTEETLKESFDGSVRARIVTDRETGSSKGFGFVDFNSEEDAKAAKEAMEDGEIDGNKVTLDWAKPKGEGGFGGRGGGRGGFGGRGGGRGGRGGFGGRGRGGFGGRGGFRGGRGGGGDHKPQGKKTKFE

GGAGGTTTCCGGGGGCGCGGGGCGGAGC (structured_DNA) [KD52 (SHOX G-rich strand)]: binds (intramolecular parallel G4, two G stretches plus GNG motifs).

GCTCCGCCCCGCGCCCCCGGAAACCTCC (ssDNA) [KD53 (C-rich reverse complement of KD52)]: no binding (single strand).
